From PMC4531439, “New insights into the molecular mechanism of the Rab GTPase Sec4p activation” (BMC Structural Biology, 2015)

Biological target: the molecule itself
Assay: cell-based or functional assay

B1: Sec2p (51–142) (domain or fragment, UniProt P17065 51-142, looked up)
chain: NYNQLKEDYNTLKRELSDRDDEVKRLREDIAKENELRTKAEEEADKLNKEVEDLTASLFDEANNMVADARKEKYAIEILNKRLTEQLREKDT
mantGDP dissociation rate from Sec4p(19-187) stimulated by 500 nM Sec2p(51-142), compared with Sec2p(1-160): 20 fold slower than Sec2p 1-160
